In one data set the test system is Botrytis cinerea conidia. Briefly: In vitro liquid-based assay (fungal biomass, 96-well plates, Cytation 5). The note with it: co-incubated with conidia for three days, vs untreated control. It is filed as cell-based. As to the method:
Fungal culture. The Botrytis cinerea was plated each week the culture onto Malt Extract Agar (MEA) from long-term storage on silica stored at 4° C. Three pellets of silica were added to the center of a MEA agar plate and grown at room temperature without parafilm/tape seal for 10-14 days before use; a culture 12 days old was typically used.
Spore and media preparation. A pure culture of B. cinerea was flooded with a 0.01% Triton x-100 solution and conidia scraped free with a sterile hockey stick. The suspension was transferred to two, 1.5 mL centrifuge tubes and centrifuged at 8000 rpm for two minutes. The supernatant was discarded, pelleted spores washed twice with sterile water, then resuspended in sterile water. Conidia were quantified using a hemacytometer and diluted to a final concentration of 5000 conidia/mL stock. A stock solution of 1.25× minimal media was prepared for the assay setup using the components below. Once the stock solution was made, the pH was adjusted to 6.0 using NaOH or KOH, then filter sterilized through a 0.2 um filter tower and vacuum pump and stored at 4° C. The Kao & Michayluk Vitamins (100×) is a filter sterilized stock solution. The stock contains vitamins and amino acids as described by Kao & Michayluk. After filter sterilization, 20 mg of 4-Aminobenzoic acid in 100 ml of solution was added.
Experimental setup. Screening assays were setup in 96-well plates with conidia co-incubated with treatments (controls and dsRNAs) for three days before determining fungal biomass. Each treatment was replicated eight times within a single plate. In each well consisted of 12.5 μl of conidia suspension, 25 μl of the treatment, 12.5 μl of sterile deionized water, and 200 μl of minimal media. Each plate was covered with a breath right film and placed in the percival growth chamber at 23° C. on the shaking platform set to 120 RPM with 24-hour lighting. Plates were incubated for 72 hours before determining fungal growth.
Reading assay plate. Fungal biomass was determined by reading plates with the Cytation 5 machine. The program was set to compile 8 photo slices per well under brightfield microscopy with a 2.5× lens to measure biomass.
Data analysis. Analysis will automatically run on Cytation5 to determine final biomass.
Results are shown in Table 1B representing the average reduction in biomass vs. control for tested sequences across several runs described above.

The subject of data set [1] is Botrytis cinerea isolate (B05.10). Briefly: Detached leaf assay (tomato leaflets, lesion size). The note with it: five days post inoculation, vs untreated inoculated control. It is filed as in vivo. As to the method: Plant tissue. Tomato plants, variety Brandywine, were grown in the greenhouse for 3 weeks before harvesting the first true leaves for assays. Nodes 2-4 were prioritized for harvest and only lateral leaflets were used for assays. Leaflets of approximately the same size were used each week and were randomized among treatments. Detached leaflets were immediately brought into the lab for treatment and used within 4 hours of harvest. Detached leaflets were kept at 4° C. until they were treated and placed onto a 1% water agar medium for incubation.
Fungal culture. A Botrytis cinerea isolate (B05.10) was preserved on silica for long-term storage and pulled from these tubes stored at 4° C. for growth on a nutritive medium. Three pellets of silica were added to the center of a Malt Extract Agar (MEA) agar plate and grown at room temperature without parafilm/tape seal for ˜14 days, or until abundant conidia formation, before use.
Treatment of leaflets. Leaflets were treated 24 hours before inoculation and applied using an atomizer to get a fine mist of small droplets entirely covering the leaflet. Silwet L-77 was used as a spreader and added for a 0.03% final concentration (Silwet L-77 brand Phyto Technology Laboratories, S7777 Lot #14D7777001 F). The inoculated control was sprayed with the same volume of sterile DI water with Silwet L-77 in the absence of fungicide or experimental material. Leaflets were spray treated by laying them on a paper towel and holding the atomizer ˜6″ away from the leaflet for applications. Treated leaves were placed on a 1% water agar (10 g Bacto Agar, Difco, in 1 L deionized water, sterilized for 30 minutes at 121° C. and poured when reached a temp of 55° C. into 100×20 mm Petri dishes), with lids of the Petri dishes placed back on before putting Petri dishes under plastic bags to maintain humidity before inoculation the following day. Petri dishes of treated leaflets were left on the lab counter until the following day. Each treatment was replicated ten times with each replicate being a single treated leaflet with two inoculation sites, one on each side of the leaf midvein.
Inoculation. The conidial suspension was prepared by pouring a 7% white grape juice solution onto the culture plate, then scraping the plate with a sterile spatula to dislodge the spores and mycelia. The grape juice solution was prepared by mixing Welch's brand organic white grape juice into sterile deionized water. After dislodging the spores and mycelia of the culture, the suspension was poured through two layers of cheesecloth to remove fungal mycelia and catch the conidial suspension in a clean 50 mL conical tube. Approximately 3 uL of TWEEN 20 was added to conidial suspension to prevent sticking to conical tube. The spore concentration was determined using a Neubauer Improved hemocytometer and inoculum was diluted with more 7% grape juice until a spore concentration of 1×10^5 conidia/mL was reached. Inoculum was used to inoculate host tissue within 2 hours of preparation. Each tomato leaflet was inoculated twice, with inoculation sites placed one per side of the leaflet midvein. A 10 μL volume of spore suspension was placed at each inoculation site using a repeater pipette. Special care was taken not to touch the tip to leaflet surface to avoid contamination between treatments.
Incubation. Petri dishes were placed on lunch trays 6 plates high and moved to an incubator. The incubator was humidity controlled and holds at ˜75% relative humidity. The incubator was kept on 12/12 light/dark days and is set to a temperature of 23° C.
Rating. Measurements were taken at five days post inoculation (DPI). Each lesion that developed was measured using electronic calipers in 2 directions perpendicular to each other to help determine lesion diameter.
Data analysis. Data was analyzed using the SAS JMP statistical program (version 13.2.1) with comparisons made to the untreated, inoculated control. […]

The test system of data set [2] is Botrytis cinerea B05.10 isolate. Briefly: Greenhouse whole plant assay (tomato 'Lanai', disease severity). It is filed as in vivo. The note with it: final rating day (rating #3). The procedure: Plant Tissue: Tomato seedlings, variety “Lanai”, were seeded then thinned to one plant per pot in an 18 cell tray. […] Plants were grown at a 23° C./17° C. day/night temperature with 10 hours of light each 24-hour period. The RH was ambient and plants were fertilized two times a day every day except for Sunday when they received only water. Plants were grown using Fafard brand medium (70-80% sphagnum peat moss, perlite, vermiculite, dolomite limestone and watering agent) for the entire experiment.
Fungal culture. A Botrytis cinerea B05.10 isolate was maintained, and spores were harvested as previously described for detached leaf assays, except a grape juice additive was not used for inoculum preparation.
Treatment of plants. Whole tomato plants were treated ˜24 hours before inoculation using the spray booth. A 0.07% Silwet L-77 solution was used as a spreader and added for a 0.07% final volume in water (Silwet L-77 brand Phyto Technology Laboratories, S7777 Lot #14D7777001 F). The spray booth deck was set to 20″ above the plant canopy and a twinjet 8002EVS nozzle with 100 mesh filter placed into the spray mechanism. The spray boom was calibrated before treatment application with specs as follows: 50 GPA rate, 1.25 MPH speed, 6′ spray length, single pass, and at 45 psi to get a catch of 133 mL in 10 seconds (+/−6 mL). Each treatment was replicated ten times for each experimental run.
Inoculation. Plants were inoculated using a mist-o-matic applicator, which is pressurized by manual pumping. The inoculum suspension was poured into the mist-o-matic immediately before inoculation in the GH space. The containers were only filled half-way and inoculum was applied evenly to the surface of all foliage with even coverage.
Incubation. Plants were incubated inside of a 40″ tall humidity chamber supported by PVC pipe and covered in 3M translucent plastic. A humidifier was inside the chamber and set to low and continuous humidity (filled with tap water). The temperature was D:24-20° C./N:20-18° C. with 15 hours of light, of which 9 hours was with supplemental lighting. RH was ambient and watering occurred everyday by sub-irrigation with the bench being flooded for 10 minutes before draining.
Rating. Tomato plants were rated three times during the two-week experiment with rating starting four days post-inoculation and occurring every three to four days after the initial rating date. Plants were rated for the number of lesions and disease severity, which is the percentage of the plant that was symptomatic including necrotic lesions, pathogen sporulation, and chlorosis.
Data analysis. […] Percent disease severity (%DS) was determined by the percent area of the tomato foliage with symptoms including lesions, chlorosis, necrosis, and wilting. Disease severity was rated at three dates (Rating #) over the 12-day test period. Treatments were compared to the untreated, inoculated control and a chemical standard. Statistical analysis was done using SAS JMP version 13.2.1 with treatments compared to the untreated, inoculated control and a chemical standard using Tukey-Kramer and student's T tests.

B1: GS413: dsRNA trigger targeting B. cinerea NBP35 (XM_001552213.2); trigger SEQ ID NO 15, RNA 27, reverse complement 39 (nucleic acid, listed as Botrytis cinerea)
sense: GCAAAAUUCCAUUGUUGCUUUGUAAACAUCCAUCCUACGACUUUAUUAUCUCAUCGAUCAUCCCACAAUUUACAUUUUCCAUUUUACACUCAAUAAACAAUUGAAAAACAAUAUUCUGAGUUGGUCGCAGUAAAUCAUGGCUCCAUCUCUUGAGGAAAGGCCCGAUGCUGUGCAAGACGUCCUCUCAAAUCCUCUCAAAAAUGCUCCCAAACUUGUCGCCCCAGAACCUGAACAUUGUCCCGGUCCAGAAUCCGAAGCGGCGGGAAAGGCAGAUUCUUGCGCGGGCUGUCCAAACCAAGCCAUAUGCGCAUCCGCACCCAAAGGUCCCGAUCCAGAUAUUCCAGCUAUAACUGCACGUCUUGCUGGUAUCAAACAUAAAGUCUUAAUUCUGUCGGGGAAAGGUGGUGUAGGAAAAAGCACAUUUACAACUUUACUUGCACAUGCCUUCGCAACAAAUGAGGACAACACAGUAGGAAUCAU
antisense: AUGAUUCCUACUGUGUUGUCCUCAUUUGUUGCGAAGGCAUGUGCAAGUAAAGUUGUAAAUGUGCUUUUUCCUACACCACCUUUCCCCGACAGAAUUAAGACUUUAUGUUUGAUACCAGCAAGACGUGCAGUUAUAGCUGGAAUAUCUGGAUCGGGACCUUUGGGUGCGGAUGCGCAUAUGGCUUGGUUUGGACAGCCCGCGCAAGAAUCUGCCUUUCCCGCCGCUUCGGAUUCUGGACCGGGACAAUGUUCAGGUUCUGGGGCGACAAGUUUGGGAGCAUUUUUGAGAGGAUUUGAGAGGACGUCUUGCACAGCAUCGGGCCUUUCCUCAAGAGAUGGAGCCAUGAUUUACUGCGACCAACUCAGAAUAUUGUUUUUCAAUUGUUUAUUGAGUGUAAAAUGGAAAAUGUAAAUUGUGGGAUGAUCGAUGAGAUAAUAAAGUCGUAGGAUGGAUGUUUACAAAGCAACAAUGGAAUUUUGC
B1: the figures for the “Average % Reduction in Biomass” value in the data set on Botrytis cinerea conidia (25 ppm dsRNA) and in the data set with Botrytis cinerea conidia (150 ppm dsRNA) were 14% and 53%, respectively. Besides, the “Average % Reduction in Lesion Size” value in data set [1] (30 ppm) was 35.58%; in data set [1] (50 ppm), 20.66%. In addition, the “% control” value in data set [2] (8 g ai/ha, two runs, three-week-old 'Lanai' tomato plant) worked out at 34%; in data set [2] (25 g ai/ha, two runs, three-week-old 'Lanai' tomato plant) it was 26%.

B2: GS659: dsRNA trigger targeting B. cinerea SDH (XM_001548300.2_200_pos_342); trigger SEQ ID NO 16, RNA 28, reverse complement 40 (nucleic acid, listed as Botrytis cinerea)
sense: UCAGAUGCGAACCAUGGCAUCAGUCGACAGCUCAGUACCUGAAAGUCCUACCGUUUCUCCAUCCCGUCCUGUCGAAUCUGCUUCCAAGACCUCCACUGUCAAGGAACCUGCUGCCGACUCGGAGUCUUUGAUCAAGACAUUCAACAUUUACAGAUGGAACCCAGAUGAGCCAACCAGCAAGCCCCGCAUGCAAUCUUACA
antisense: UGUAAGAUUGCAUGCGGGGCUUGCUGGUUGGCUCAUCUGGGUUCCAUCUGUAAAUGUUGAAUGUCUUGAUCAAAGACUCCGAGUCGGCAGCAGGUUCCUUGACAGUGGAGGUCUUGGAAGCAGAUUCGACAGGACGGGAUGGAGAAACGGUAGGACUUUCAGGUACUGAGCUGUCGACUGAUGCCAUGGUUCGCAUCUGA
As to B2, the figures for the “Average % Reduction in Biomass” value in the data set on Botrytis cinerea conidia (25 ppm dsRNA) and in the data set with Botrytis cinerea conidia (150 ppm dsRNA) were 12% and 28%, respectively. Further, the “Average % Reduction in Lesion Size” value turned out to be 21.31% in data set [1] (30 ppm) and 19.19% in data set [1] (50 ppm). Besides, in data set [2] (25 g ai/ha, three runs, four-week-old 'Lanai' tomato plant), the “% control” value turned out to be 29%.

The values are drawn from US20230189818A1, “RNA-BASED CONTROL OF BOTRYTIS” (priority 2021, published 2023).
